# Experimental data taken from publication PMC10047488.
# How the values were obtained:
# [1] = target: Gal4 DNA-binding domain fusion of parkin fragment P2 (amino acids 141-326) (human) (UniProt O60260); experiment: two-hybrid; yeast two-hybrid based growth assay: diploids spotted in serial dilution on SD/-Leu/-Trp or SD/-Ade/-His/-Leu/-Trp plates with 0, 1, 5 or 10 uM PMN (peiminine), 30 °C, 3 days; and OD600 in liquid selective medium every 12 h for 48 h
# [2] = target: Gal4 DNA-binding domain fusion of HSD11B1L-181 fragment H2 (amino acids 92-181) (human); experiment: as above
# Chain of Gal4 DNA-binding domain fusion of HSD11B1L-181 fragment H2 (amino acids 92-181) (human) (Q7Z5J1 92-181): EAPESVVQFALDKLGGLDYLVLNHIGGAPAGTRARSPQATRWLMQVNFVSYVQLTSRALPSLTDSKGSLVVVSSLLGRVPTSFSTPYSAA
"reduction of the growth rate in selective medium after 48 h, 10 uM PMN group against the DMSO group [1] [%]","reduction of the growth rate in selective medium after 48 h, 10 mM PMN group against the DMSO group [2] [%]",Substance
95,,Gal4 activation domain fusion of HSD11B1L-181 fragment H2 (amino acids 92-181) (domain or fragment)
,93,Gal4 activation domain fusion of parkin fragment P2 (amino acids 141-326) (from UniProt O60260-1 141-326) (domain or fragment)
